Measurements taken from US20160002321A1 (HER MAJESTY THE QUEEN IN RIGHT OF CANADA AS REPRESENTED BY …, published 2016).

B1: F20G77 (antibody)
chain 1: EVQLEESGPELVSPGVSVKISCEGSGYTFTDYAMHWVKQSHARGLEWIGVIGSYSGNAHHNLNFKDKATMTVDKSSSTAYMELARLTSDDSAIYYCAY
chain 2: ELVMTQSPLSLPVSLGDQASISCRSSQSIIHSNGDTFLEWFLQKPGQSPKLLIYKVSNRFSGVPDRFSGSGSGTDFTLKISRVEAEDLGVYYCFQGSHVPLTFGAGTKLELK
B2: F20G76 (antibody, V domains shown)
VH: EVQLEESGPELVKPGASVKVSCKASGYSFTDYNMYWVKQSHGTSLEWIGVIDPNNGVTSYNQKFKDKATLTADKSSSTAFMHLNSLTSEDSAVYYCSRGGLDYWGQGTTLTVSS
VL: ELVMTQSPLSLPVSLGDQASISCRSSQSIIHSNGDTFLEWFLQKPGQSPKLLIYKVSNRFSGVPDRFSGSGSGTDFTLKISRVEAEDLGVYYCFQGSHVPLTFGAGTKLELKR

Tests used:
[1] = target: recombinant anthrax protective antigen (rPA) (Bacillus anthracis, UniProt P13423 30-764); assay: SPR, Biacore 2000, rPA on a CM5 chip, MAb in solution
[2] = target: T1, recombinant lethal factor (rLF) (Bacillus anthracis, UniProt P15917 34-809); assay: Western immunoblot, 2 µg denatured protein
T1 sequence: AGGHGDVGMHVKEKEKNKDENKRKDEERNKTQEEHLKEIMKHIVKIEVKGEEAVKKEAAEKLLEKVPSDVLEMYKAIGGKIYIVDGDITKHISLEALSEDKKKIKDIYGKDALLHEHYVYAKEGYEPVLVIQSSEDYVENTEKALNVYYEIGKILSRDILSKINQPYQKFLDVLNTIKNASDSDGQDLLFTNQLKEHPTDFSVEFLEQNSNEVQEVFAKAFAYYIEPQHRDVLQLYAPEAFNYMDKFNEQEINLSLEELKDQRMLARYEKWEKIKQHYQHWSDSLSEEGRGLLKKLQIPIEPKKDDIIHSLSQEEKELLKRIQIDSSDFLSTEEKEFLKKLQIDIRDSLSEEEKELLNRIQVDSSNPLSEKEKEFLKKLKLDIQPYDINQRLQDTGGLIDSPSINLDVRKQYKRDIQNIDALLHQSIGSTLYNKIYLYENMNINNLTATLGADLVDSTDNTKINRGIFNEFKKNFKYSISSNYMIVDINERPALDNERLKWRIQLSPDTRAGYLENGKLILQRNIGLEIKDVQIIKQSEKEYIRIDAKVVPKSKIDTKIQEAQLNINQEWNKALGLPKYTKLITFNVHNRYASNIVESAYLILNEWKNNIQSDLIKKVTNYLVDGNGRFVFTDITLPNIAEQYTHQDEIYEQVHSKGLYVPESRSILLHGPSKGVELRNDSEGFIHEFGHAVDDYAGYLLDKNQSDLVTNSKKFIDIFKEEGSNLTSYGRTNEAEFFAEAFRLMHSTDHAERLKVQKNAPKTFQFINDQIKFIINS

[3] = target: bovine serum albumin (BSA) (bovine, UniProt P02769 25-607); assay: endpoint ELISA, antigen coated at 100 ng/well
[4] = target: chymotrypsin digested rPA (47 and 37 kDa fragments) (Bacillus anthracis, UniProt P13423 30-343; P13423 344-764); assay: Western immunoblot of chymotrypsin digested rPA
chymotrypsin digested rPA (47 and 37 kDa fragments), sequence (P13423 30-343 limits assumed, chain 1 of 2): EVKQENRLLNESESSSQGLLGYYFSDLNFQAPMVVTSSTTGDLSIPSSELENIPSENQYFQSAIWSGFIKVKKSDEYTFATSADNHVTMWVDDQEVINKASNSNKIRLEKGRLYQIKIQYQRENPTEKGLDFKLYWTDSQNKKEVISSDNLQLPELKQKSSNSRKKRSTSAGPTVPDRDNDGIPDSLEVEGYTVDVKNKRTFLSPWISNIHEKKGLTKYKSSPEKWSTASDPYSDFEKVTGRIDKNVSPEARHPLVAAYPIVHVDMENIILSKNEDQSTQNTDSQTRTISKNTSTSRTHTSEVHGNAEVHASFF
chymotrypsin digested rPA (47 and 37 kDa fragments), sequence (P13423 344-764 limits assumed, chain 2 of 2): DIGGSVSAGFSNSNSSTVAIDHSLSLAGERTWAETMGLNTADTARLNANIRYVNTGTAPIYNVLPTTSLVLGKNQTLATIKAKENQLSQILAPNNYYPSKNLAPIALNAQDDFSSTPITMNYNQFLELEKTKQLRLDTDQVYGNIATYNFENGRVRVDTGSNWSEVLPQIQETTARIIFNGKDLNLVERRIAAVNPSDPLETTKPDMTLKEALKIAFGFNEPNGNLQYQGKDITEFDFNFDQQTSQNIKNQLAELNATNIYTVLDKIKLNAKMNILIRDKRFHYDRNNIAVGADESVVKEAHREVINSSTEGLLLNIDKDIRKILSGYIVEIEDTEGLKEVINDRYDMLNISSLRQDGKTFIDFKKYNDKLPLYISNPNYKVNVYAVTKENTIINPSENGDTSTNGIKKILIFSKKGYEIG

recombinant anthrax protective antigen (rPA), sequence (P13423 30-764): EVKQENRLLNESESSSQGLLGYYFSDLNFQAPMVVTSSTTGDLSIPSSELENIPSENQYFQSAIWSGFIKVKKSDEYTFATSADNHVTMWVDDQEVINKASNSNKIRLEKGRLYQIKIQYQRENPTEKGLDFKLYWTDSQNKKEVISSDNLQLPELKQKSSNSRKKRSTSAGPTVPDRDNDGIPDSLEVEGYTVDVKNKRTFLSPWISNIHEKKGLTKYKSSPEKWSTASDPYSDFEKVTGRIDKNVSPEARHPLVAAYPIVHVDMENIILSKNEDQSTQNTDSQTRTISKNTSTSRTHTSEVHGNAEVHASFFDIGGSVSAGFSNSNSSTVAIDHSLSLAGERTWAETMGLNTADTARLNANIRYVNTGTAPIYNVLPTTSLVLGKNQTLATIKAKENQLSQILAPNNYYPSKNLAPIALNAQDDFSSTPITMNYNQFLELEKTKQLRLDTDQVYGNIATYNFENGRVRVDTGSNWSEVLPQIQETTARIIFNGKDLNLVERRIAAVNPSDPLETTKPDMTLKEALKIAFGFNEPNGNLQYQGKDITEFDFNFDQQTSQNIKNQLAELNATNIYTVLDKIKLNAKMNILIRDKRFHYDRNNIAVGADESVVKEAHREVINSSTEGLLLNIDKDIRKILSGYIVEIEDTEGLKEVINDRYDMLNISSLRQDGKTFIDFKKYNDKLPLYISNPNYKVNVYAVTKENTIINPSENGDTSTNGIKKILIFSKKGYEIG
bovine serum albumin (BSA), sequence (P02769 25-607 limits assumed): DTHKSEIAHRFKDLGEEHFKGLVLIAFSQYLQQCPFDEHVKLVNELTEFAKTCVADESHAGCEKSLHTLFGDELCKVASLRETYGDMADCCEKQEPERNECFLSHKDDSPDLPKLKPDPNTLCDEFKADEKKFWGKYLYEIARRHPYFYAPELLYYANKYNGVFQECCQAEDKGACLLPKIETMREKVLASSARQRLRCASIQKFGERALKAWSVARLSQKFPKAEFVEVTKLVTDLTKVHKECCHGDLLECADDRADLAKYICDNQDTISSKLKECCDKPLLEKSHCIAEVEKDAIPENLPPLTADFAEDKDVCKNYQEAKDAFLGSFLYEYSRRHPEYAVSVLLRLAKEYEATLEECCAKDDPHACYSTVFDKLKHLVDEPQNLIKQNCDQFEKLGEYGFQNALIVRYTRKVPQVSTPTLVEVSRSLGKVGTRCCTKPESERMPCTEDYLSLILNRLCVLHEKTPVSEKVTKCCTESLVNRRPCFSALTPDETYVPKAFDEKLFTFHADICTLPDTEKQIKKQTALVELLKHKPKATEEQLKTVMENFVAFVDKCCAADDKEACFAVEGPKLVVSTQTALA

| Binder | Kd [1] | koff [1] | kon [1] | binding result [2] | binding result [3] | binding result [4] |
| --- | --- | --- | --- | --- | --- | --- |
| B1 | 0.46 nM | 1.4e-06 s⁻¹ | 3100 M⁻¹ s⁻¹ | – | – | – |
| B2 | 18.5 nM | 6.8e-05 s⁻¹ | 4000 M⁻¹ s⁻¹ | no binding | no binding | no binding |
